# Experimental data: US20250313611A1
# Values joined by “and” are separate entries in the source; they are usually repeats but may differ in a detail not shown here. Equal entries are not always repeated.
# B1: VHH R3_DC23 (VHH)
# VHH: QVQLQESGGGLVQAGDSLTLSCAVSGRIFSTYTMGWFRQAPGKEREFVAAVRWGAGTIYYADSMKGRFTISRDSAKNTVDLQMNSTKPEDTAVYYCGAAYVSKANYGSLWYQDSRRYDYWGQGTQVTVSS
# Target: spike proteins of the tested omicron
# Assay: cell-based or functional assay
binder,measurement,value
B1,"IC50, neutralisation of VSV spike pseudotypes",2.9 ng/mL and 5.7 ng/mL
